Results: US9958461B2, “Detection of protein to protein interactions” (THE GOVERNING COUNCIL OF THE UNIVERSITY OF TORONTO, priority 2013, dated 2018)

B1: WASF3 (protein, UniProt Q9UPY6 1-502, looked up)
Actin-binding protein WASF3: MPLVKRNIEPRHLCRGALPEGITSELECVTNSTLAAIIRQLSSLSKHAEDIFGELFNEANNFYIRANSLQDRIDRLAVKVTQLDSTVEEVSLQDINMKKAFKSSTVQDQQVVSKNSIPNPVADIYNQSDKPPPLNILTPYRDDKKDGLKFYTDPSYFFDLWKEKMLQDTEDKRKEKRRQKEQKRIDGTTREVKKVRKARNRRQEWNMMAYDKELRPDNRLSQSVYHGASSEGSLSPDTRSHASDVTDYSYPATPNHSLHPQPVTPSYAAGDVPPHGPASQAAEHEYRPPSASARHMALNRPQQPPPPPPPQAPEGSQASAPMAPADYGMLPAQIIEYYNPSGPPPPPPPPVIPSAQTAFVSPLQMPMQPPFPASASSTHAAPPHPPSTGLLVTAPPPPGPPPPPPGPPGPGSSLSSSPMHGPPVAEAKRQEPAQPPISDARSDLLAAIRMGIQLKKVQEQREQEAKREPVGNDVATILSRRIAVEYSDSDDDSEFDENDWSD
B2: PDCD6IP (protein, UniProt Q8WUM4 2-868, looked up)
Programmed cell death …: ATFISVQLKKTSEVDLAKPLVKFIQQTYPSGGEEQAQYCRAAEELSKLRRAAVGRPLDKHEGALETLLRYYDQICSIEPKFPFSENQICLTFTWKDAFDKGSLFGGSVKLALASLGYEKSCVLFNCAALASQIAAEQNLDNDEGLKIAAKHYQFASGAFLHIKETVLSALSREPTVDISPDTVGTLSLIMLAQAQEVFFLKATRDKMKDAIIAKLANQAADYFGDAFKQCQYKDTLPKEVFPVLAAKHCIMQANAEYHQSILAKQQKKFGEEIARLQHAAELIKTVASRYDEYVNVKDFSDKINRALAAAKKDNDFIYHDRVPDLKDLDPIGKATLVKSTPVNVPISQKFTDLFEKMVPVSVQQSLAAYNQRKADLVNRSIAQMREATTLANGVLASLNLPAAIEDVSGDTVPQSILTKSRSVIEQGGIQTVDQLIKELPELLQRNREILDESLRLLDEEEATDNDLRAKFKERWQRTPSNELYKPLRAEGTNFRTVLDKAVQADGQVKECYQSHRDTIVLLCKPEPELNAAIPSANPAKTMQGSEVVNVLKSLLSNLDEVKKEREGLENDLKSVNFDMTSKFLTALAQDGVINEEALSVTELDRVYGGLTTKVQESLKKQEGLLKNIQVSHQEFSKMKQSNNEANLREEVLKNLATAYDNFVELVANLKEGTKFYNELTEILVRFQNKCSDIVFARKTERDELLKDLQQSIAREPSAPSIPTPAYQSSPAGGHAPTPPTPAPRTMPPTKPQPPARPPPPVLPANRAPSATAPSPVGAGTAAPAPSQTPGSAPPPQAQGPPYPTYPGYPGYCQMPMPMGYNPYAYGQYNMPYPPVYHQSPGQAPYPGPQQPSYPFPQPPQQSYYPQQ
B3: MAP3K3 (protein, UniProt Q99759 1-626, looked up)
Mitogen-activated protein …: MDEQEALNSIMNDLVALQMNRRHRMPGYETMKNKDTGHSNRQSDVRIKFEHNGERRIIAFSRPVKYEDVEHKVTTVFGQPLDLHYMNNELSILLKNQDDLDKAIDILDRSSSMKSLRILLLSQDRNHNSSSPHSGVSRQVRIKASQSAGDINTIYQPPEPRSRHLSVSSQNPGRSSPPPGYVPERQQHIARQGSYTSINSEGEFIPETSEQCMLDPLSSAENSLSGSCQSLDRSADSPSFRKSRMSRAQSFPDNRQEYSDRETQLYDKGVKGGTYPRRYHVSVHHKDYSDGRRTFPRIRRHQGNLFTLVPSSRSLSTNGENMGLAVQYLDPRGRLRSADSENALSVQERNVPTKSPSAPINWRRGKLLGQGAFGRVYLCYDVDTGRELASKQVQFDPDSPETSKEVSALECEIQLLKNLQHERIVQYYGCLRDRAEKTLTIFMEYMPGGSVKDQLKAYGALTESVTRKYTRQILEGMSYLHSNMIVHRDIKGANILRDSAGNVKLGDFGASKRLQTICMSGTGMRSVTGTPYWMSPEVISGEGYGRKADVWSLGCTVVEMLTEKPPWAEYEAMAAIFKIATQPTNPQLPSHISEHGRDFLRRIFVEARQRPSAEELLTHHFAQLMY
B4: PAK1 (protein, UniProt Q13153 2-545, looked up)
Serine/threonine-protein …: SNNGLDIQDKPPAPPMRNTSTMIGAGSKDAGTLNHGSKPLPPNPEEKKKKDRFYRSILPGDKTNKKKEKERPEISLPSDFEHTIHVGFDAVTGEFTGMPEQWARLLQTSNITKSEQKKNPQAVLDVLEFYNSKKTSNSQKYMSFTDKSAEDYNSSNALNVKAVSETPAVPPVSEDEDDDDDDATPPPVIAPRPEHTKSVYTRSVIEPLPVTPTRDVATSPISPTENNTTPPDALTRNTEKQKKKPKMSDEEILEKLRSIVSVGDPKKKYTRFEKIGQGASGTVYTAMDVATGQEVAIKQMNLQQQPKKELIINEILVMRENKNPNIVNYLDSYLVGDELWVVMEYLAGGSLTDVVTETCMDEGQIAAVCRECLQALEFLHSNQVIHRDIKSDNILLGMDGSVKLTDFGFCAQITPEQSKRSTMVGTPYWMAPEVVTRKAYGPKVDIWSLGIMAIEMIEGEPPYLNENPLRALYLIATNGTPELQNPEKLSAIFRDFLNRCLEMDVEKRGSAKELLQHQFLKIAKPLSSLTPLIAAAKEATKNNH
B5: HDAC7 (protein, UniProt Q8WUI4 1-952, looked up)
Histone deacetylase 7: MDLRVGQRPPVEPPPEPTLLALQRPQRLHHHLFLAGLQQQRSVEPMRLSMDTPMPELQVGPQEQELRQLLHKDKSKRSAVASSVVKQKLAEVILKKQQAALERTVHPNSPGIPYRTLEPLETEGATRSMLSSFLPPVPSLPSDPPEHFPLRKTVSEPNLKLRYKPKKSLERRKNPLLRKESAPPSLRRRPAETLGDSSPSSSSTPASGCSSPNDSEHGPNPILGSEALLGQRLRLQETSVAPFALPTVSLLPAITLGLPAPARADSDRRTHPTLGPRGPILGSPHTPLFLPHGLEPEAGGTLPSRLQPILLLDPSGSHAPLLTVPGLGPLPFHFAQSLMTTERLSGSGLHWPLSRTRSEPLPPSATAPPPPGPMQPRLEQLKTHVQVIKRSAKPSEKPRLRQIPSAEDLETDGGGPGQVVDDGLEHRELGHGQPEARGPAPLQQHPQVLLWEQQRLAGRLPRGSTGDTVLLPLAQGGHRPLSRAQSSPAAPASLSAPEPASQARVLSSSETPARTLPFTTGLIYDSVMLKHQCSCGDNSRHPEHAGRIQSIWSRLQERGLRSQCECLRGRKASLEELQSVHSERHVLLYGTNPLSRLKLDNGKLAGLLAQRMFVMLPCGGVGVDTDTIWNELHSSNAARWAAGSVTDLAFKVASRELKNGFAVVRPPGHHADHSTAMGFCFFNSVAIACRQLQQQSKASKILIVDWDVHHGNGTQQTFYQDPSVLYISLHRHDDGNFFPGSGAVDEVGAGSGEGFNVNVAWAGGLDPPMGDPEYLAAFRIVVMPIAREFSPDLVLVSAGFDAAEGHPAPLGGYHVSAKCFGYMTQQLMNLAGGAVVLALEGGHDLTAICDASEACVAALLGNRVDPLSEEGWKQKPNLNAIRSLEAVIRVHSKYWGCMQRLASCPDSWVPRVPGADKEEVEAVTALASLSVGILAEDRPSEQLVEEEEPMNL
B6: SH3GL2 (protein, UniProt Q99962 1-352, looked up)
Endophilin-A1: MSVAGLKKQFHKATQKVSEKVGGAEGTKLDDDFKEMERKVDVTSRAVMEIMTKTIEYLQPNPASRAKLSMINTMSKIRGQEKGPGYPQAEALLAEAMLKFGRELGDDCNFGPALGEVGEAMRELSEVKDSLDIEVKQNFIDPLQNLHDKDLREIQHHLKKLEGRRLDFDYKKKRQGKIPDEELRQALEKFDESKEIAESSMFNLLEMDIEQVSQLSALVQAQLEYHKQAVQILQQVTVRLEERIRQASSQPRREYQPKPRMSLEFPTGDSTQPNGGLSHTGTPKPSGVQMDQPCCRALYDFEPENEGELGFKEGDIITLTNQIDENWYEGMLHGHSGFFPINYVEILVALPH
B7: VAV1 (protein, UniProt P15498 1-845, looked up)
Proto-oncogene vav: MELWRQCTHWLIQCRVLPPSHRVTWDGAQVCELAQALRDGVLLCQLLNNLLPHAINLREVNLRPQMSQFLCLKNIRTFLSTCCEKFGLKRSELFEAFDLFDVQDFGKVIYTLSALSWTPIAQNRGIMPFPTEEESVGDEDIYSGLSDQIDDTVEEDEDLYDCVENEEAEGDEIYEDLMRSEPVSMPPKMTEYDKRCCCLREIQQTEEKYTDTLGSIQQHFLKPLQRFLKPQDIEIIFINIEDLLRVHTHFLKEMKEALGTPGAANLYQVFIKYKERFLVYGRYCSQVESASKHLDRVAAAREDVQMKLEECSQRANNGRFTLRDLLMVPMQRVLKYHLLLQELVKHTQEAMEKENLRLALDAMRDLAQCVNEVKRDNETLRQITNFQLSIENLDQSLAHYGRPKIDGELKITSVERRSKMDRYAFLLDKALLICKRRGDSYDLKDFVNLHSFQVRDDSSGDRDNKKWSHMFLLIEDQGAQGYELFFKTRELKKKWMEQFEMAISNIYPENATANGHDFQMFSFEETTSCKACQMLLRGTFYQGYRCHRCRASAHKECLGRVPPCGRHGQDFPGTMKKDKLHRRAQDKKRNELGLPKMEVFQEYYGLPPPPGAIGPFLRLNPGDIVELTKAEAEQNWWEGRNTSTNEIGWFPCNRVKPYVHGPPQDLSVHLWYAGPMERAGAESILANRSDGTFLVRQRVKDAAEFAISIKYNVEVKHIKIMTAEGLYRITEKKAFRGLTELVEFYQQNSLKDCFKSLDTTLQFPFKEPEKRTISRPAVGSTKYFGTAKARYDFCARDRSELSLKEGDIIKILNKKGQQGWWRGEIYGRVGWFPANYVEEDYSEYC
B8: CDC25C (protein, UniProt P30307 2-473, looked up)
M-phase inducer phosphatase 3: STELFSSTREEGSSGSGPSFRSNQRKMLNLLLERDTSFTVCPDVPRTPVGKFLGDSANLSILSGGTPKRCLDLSNLSSGEITATQLTTSADLDETGHLDSSGLQEVHLAGMNHDQHLMKCSPAQLLCSTPNGLDRGHRKRDAMCSSSANKENDNGNLVDSEMKYLGSPITTVPKLDKNPNLGEDQAEEISDELMEFSLKDQEAKVSRSGLYRSPSMPENLNRPRLKQVEKFKDNTIPDKVKKKYFSGQGKLRKGLCLKKTVSLCDITITQMLEEDSNQGHLIGDFSKVCALPTVSGKHQDLKYVNPETVAALLSGKFQGLIEKFYVIDCRYPYEYLGGHIQGALNLYSQEELFNFFLKKPIVPLDTQKRIIIVFHCEFSSERGPRMCRCLREEDRSLNQYPALYYPELYILKGGYRDFFPEYMELCEPQSYCPMHHQDHKTELLRCRSQSKVQEGERQLREQIALLVKDMSP

molecular target: T1, EGFR-Wt (Homo sapiens, UniProt P00533); assay: MaMTH EGFR-interactor screen, lentiviral preys against EGFR-wildtype bait (interaction score); format: cell-based; conditions: MaMTH interaction score of prey with EGFR-Wt bait, mean
T1 construct: with the advantage of testing full-length integral membrane proteins; (GGGGS)2 linker-Cub (human ubiquitin aa 35-76)-GAL4(1-147)-mNFkB(364-550) (C); expressed in transfected cells
Outline: (§1)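 Interaction score is the luciferase fold-change versus averaged negative controls (Fabp5, Pex19, Pex7, GABBR2), with >1 called interacting. Luciferase was measured 24 h after triplicate bait transfection. This followed single-copy prey transduction (MOI ~0.3-0.4) of GAL4UAS-luciferase HEK293T cells and ≥48 h puromycin selection.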

| EGFR-Wt mean | Molecule |
| --- | --- |
| 1.30 | B1 |
| 7.39 | B2 |
| 2.01 | B3 |
| 1.50 | B4 |
| 2.37 | B5 |
| 4.58 | B6 |
| 1.45 | B7 |
| 2.12 | B8 |

system: EGFR-Wt; assay: as above; format: cell-based, human; conditions: ratio of EGFR-Wt mean to EGFR-L858R mean interaction score
Outline: as §1

| Molecule | Wt/L858R |
| --- | --- |
| B1 | 0.61 |
| B2 | 0.53 |
| B3 | 0.58 |
| B4 | 0.55 |
| B5 | 0.55 |
| B6 | 0.58 |
| B7 | 0.54 |
| B8 | 0.54 |

molecular target: T2, EGFR-L858R (Homo sapiens, UniProt P00533, L858R); assay: MaMTH EGFR-interactor screen, lentiviral preys against EGFR-L858R bait (interaction score); format: cell-based; conditions: MaMTH interaction score of prey with EGFR-L858R bait
T2 construct: with the advantage of testing full-length integral membrane proteins; (GGGGS)2 linker-Cub (human ubiquitin aa 35-76)-GAL4(1-147)-mNFkB(364-550) (C); expressed in transfected cells
Outline: as §1

| EGFR-L858R mean | Molecule |
| --- | --- |
| 2.15 | B1 |
| 14.05 | B2 |
| 3.46 | B3 |
| 2.70 | B4 |
| 4.35 | B5 |
| 7.85 | B6 |
| 2.68 | B7 |
| 3.94 | B8 |
